Measured values published in FireProtDB (doi:10.1021/bi00432a026).

Details: Aspergillus oryzae (strain ATCC 42149 / RIB 40), DSC, reversible: yes, whole UniProt chain shown; for denaturant m value / denaturant midpoint (higher = more stable) / unfolding free energy: Urea; for Tm / heat capacity change of unfolding / unfolding enthalpy (calorimetric): Thermal
[1] = pH 2.8, 27.75 °C, glycine 30 mM

B1: Guanyl-specific ribonuclease T1 wild type, P00651 (protein)
chain: MMYSKLLTLTTLLLPTALALPSLVERACDYTCGSNCYSSSDVSTAQAAGYQLHEDGETVGSNSYPHKYNNYEGFDFSVSSPYYEWPILSSGDVYSGGSPGADRVVFNENNQLAGVITHTGASGNNFVECT
denaturant m value (pH 2.8, 17.1 °C, glycine 30 mM): 2.44 kcal/mol/M
denaturant midpoint (higher = more stable) (pH 2.8, 17.1 °C, glycine 30 mM): 2.25 M
unfolding free energy (pH 2.8, 17.1 °C, glycine 30 mM): 5.41 kcal/mol
denaturant m value (pH 2.8, 21.1 °C, glycine 30 mM): 2.43 kcal/mol/M
denaturant midpoint (higher = more stable) (pH 2.8, 21.1 °C, glycine 30 mM): 2.02 M
unfolding free energy (pH 2.8, 21.1 °C, glycine 30 mM): 4.85 kcal/mol
denaturant m value (pH 2.8, 24.9 °C, glycine 30 mM): 2.33 kcal/mol/M
denaturant midpoint (higher = more stable) (pH 2.8, 24.9 °C, glycine 30 mM): 1.8 M
unfolding free energy (pH 2.8, 24.9 °C, glycine 30 mM): 4.33 kcal/mol
denaturant m value [1]: 2.45 kcal/mol/M
denaturant midpoint (higher = more stable) [1]: 1.44 M
unfolding free energy [1]: 3.48 kcal/mol
Tm (pH 2.8, glycine 30 mM): 42.6 °C
heat capacity change of unfolding (pH 2.8, glycine 30 mM): 2.2 kcal/mol/K
unfolding enthalpy (calorimetric) (pH 2.8, glycine 30 mM): 95 kcal/mol
denaturant m value (pH 5.95, 19.05 °C, MES 30 mM): 1.19 kcal/mol/M
denaturant midpoint (higher = more stable) (pH 5.95, 19.05 °C, MES 30 mM): 6.64 M
unfolding free energy (pH 5.95, 19.05 °C, MES 30 mM): 7.94 kcal/mol
denaturant m value (pH 5.95, 22 °C, MES 30 mM): 1.19 kcal/mol/M
denaturant midpoint (higher = more stable) (pH 5.95, 22 °C, MES 30 mM): 6.32 M
unfolding free energy (pH 5.95, 22 °C, MES 30 mM): 7.55 kcal/mol
denaturant m value (pH 5.95, 29.1 °C, MES 30 mM): 1.18 kcal/mol/M
denaturant midpoint (higher = more stable) (pH 5.95, 29.1 °C, MES 30 mM): 5.45 M
unfolding free energy (pH 5.95, 29.1 °C, MES 30 mM): 6.51 kcal/mol
Tm (pH 5.95, MES 30 mM): 52.8 °C
heat capacity change of unfolding (pH 5.95, MES 30 mM): 1.49 kcal/mol/K
unfolding enthalpy (calorimetric) (pH 5.95, MES 30 mM): 104 kcal/mol
denaturant m value (pH 7, 19.2 °C, MOPS 30 mM): 1.21 kcal/mol/M
denaturant midpoint (higher = more stable) (pH 7, 19.2 °C, MOPS 30 mM): 5.26 M
unfolding free energy (pH 7, 19.2 °C, MOPS 30 mM): 6.29 kcal/mol
denaturant m value (pH 7, 21.1 °C, MOPS 30 mM): 1.1 kcal/mol/M
denaturant midpoint (higher = more stable) (pH 7, 21.1 °C, MOPS 30 mM): 4.98 M
unfolding free energy (pH 7, 21.1 °C, MOPS 30 mM): 5.95 kcal/mol
denaturant m value (pH 7, 23.05 °C, MOPS 30 mM): 1.2 kcal/mol/M
denaturant midpoint (higher = more stable) (pH 7, 23.05 °C, MOPS 30 mM): 4.86 M
unfolding free energy (pH 7, 23.05 °C, MOPS 30 mM): 5.81 kcal/mol
denaturant m value (pH 7, 25 °C, MOPS 30 mM): 1.2 kcal/mol/M
denaturant midpoint (higher = more stable) (pH 7, 25 °C, MOPS 30 mM): 4.58 M
unfolding free energy (pH 7, 25 °C, MOPS 30 mM): 5.47 kcal/mol
denaturant m value (pH 7, 27 °C, MOPS 30 mM): 1.2 kcal/mol/M
denaturant midpoint (higher = more stable) (pH 7, 27 °C, MOPS 30 mM): 4.14 M
unfolding free energy (pH 7, 27 °C, MOPS 30 mM): 4.95 kcal/mol
denaturant m value (pH 7, 29 °C, MOPS 30 mM): 1.27 kcal/mol/M
denaturant midpoint (higher = more stable) (pH 7, 29 °C, MOPS 30 mM): 3.93 M
unfolding free energy (pH 7, 29 °C, MOPS 30 mM): 4.7 kcal/mol
Tm (pH 7, MOPS 30 mM): 48.2 °C
heat capacity change of unfolding (pH 7, MOPS 30 mM): 1.72 kcal/mol/K
unfolding enthalpy (calorimetric) (pH 7, MOPS 30 mM): 95.2 kcal/mol
denaturant m value (pH 7.9, 19.05 °C, HEPPSO 30 mM): 1.11 kcal/mol/M
denaturant midpoint (higher = more stable) (pH 7.9, 19.05 °C, HEPPSO 30 mM): 4.19 M
unfolding free energy (pH 7.9, 19.05 °C, HEPPSO 30 mM): 5.01 kcal/mol
denaturant m value (pH 7.9, 22 °C, HEPPSO 30 mM): 1.25 kcal/mol/M
denaturant midpoint (higher = more stable) (pH 7.9, 22 °C, HEPPSO 30 mM): 3.91 M
unfolding free energy (pH 7.9, 22 °C, HEPPSO 30 mM): 4.67 kcal/mol
denaturant m value (pH 7.9, 25 °C, HEPPSO 30 mM): 1.28 kcal/mol/M
denaturant midpoint (higher = more stable) (pH 7.9, 25 °C, HEPPSO 30 mM): 3.44 M
unfolding free energy (pH 7.9, 25 °C, HEPPSO 30 mM): 4.11 kcal/mol
denaturant m value (pH 7.9, 28.95 °C, HEPPSO 30 mM): 1.19 kcal/mol/M
denaturant midpoint (higher = more stable) (pH 7.9, 28.95 °C, HEPPSO 30 mM): 2.95 M
unfolding free energy (pH 7.9, 28.95 °C, HEPPSO 30 mM): 3.52 kcal/mol
Tm (pH 7.9, HEPPSO 30 mM): 43.3 °C
heat capacity change of unfolding (pH 7.9, HEPPSO 30 mM): 1.65 kcal/mol/K
unfolding enthalpy (calorimetric) (pH 7.9, HEPPSO 30 mM): 87.1 kcal/mol
